Key:
[1] = target: T1, human CCR8 (human, UniProt P51685 1-355); assay: flow cytometry on mammalian cells expressing human CCR8
T1 construct: whole, on cells; also called hCCR8

[2] = target: T1, human CCR8; assay: cell-based or functional assay
[3] = target: T1, human CCR8; assay: cell-based or functional assay; remark: listed apart in the source

T1 sequence (P51685 whole entry): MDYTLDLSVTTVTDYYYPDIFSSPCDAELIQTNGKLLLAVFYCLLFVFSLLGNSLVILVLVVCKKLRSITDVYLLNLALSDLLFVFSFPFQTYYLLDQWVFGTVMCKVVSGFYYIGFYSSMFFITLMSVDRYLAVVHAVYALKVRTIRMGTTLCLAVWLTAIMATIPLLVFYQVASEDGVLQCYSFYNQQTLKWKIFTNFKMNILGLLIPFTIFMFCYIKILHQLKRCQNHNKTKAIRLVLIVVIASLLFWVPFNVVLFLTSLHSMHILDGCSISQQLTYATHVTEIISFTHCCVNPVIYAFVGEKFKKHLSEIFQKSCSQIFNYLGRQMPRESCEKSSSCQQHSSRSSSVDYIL

Row | Binder | MFI Fold over Background [1] [fold over background] | IC50 antagonism of EC80 Human CCL1 Gα15/16 Biosensor [2] [nM] | IC50 antagonism of EC80 Human CCL1 Gαz Biosensor [2] [nM] | EC50 of hCCR8-specific internalization [3] [µg/mL]
1 | ADI-35281 (antibody, V domains shown, Produced as IgG) VH: EVKLEQSGGGLVQPKGSLKLSCVASGFTFNAYAMNWVRQAPGQGLEWVARIRSKSNNYATYYAASVKDRFTISRDDSQSILYLQMNNLKTEDTAMYYCVRQSYGNSNYAMDYWGQGTTVTVSS VL: DIQLTQSPPSVPVTPGESVSISCRSSKSLLHSNGNTYLYWFLQRPGQSPQLLIYRKSNLASGVPDRFSGSGSGTAFTLRISRVEAEDVGVYYCMQHLEYPFTFGGGTKLEIK | 336 |  |  | 
2 | ADI-40306 (antibody, V domains shown) VH: QVQLVESGGGVVQPGRSLRLSCAASGFTFSSYGMHWVRQAPGKGLEWVAVISYDGSNKYYAFSVKGRFTISRDNSKNTLYLQMNSLRVEDTAVYYCARVRRIAGRAGYGMDVWGQGTTVTVSS VL: not shown |  | 29.8 | 18.9 | 
3 | ADI-40352 (antibody, V domains shown) VH: QLQLQESGPGLVKPSETLSLTCTVSGGSISSSSYAWGWIRQPPGKRLEWIGSIYYTGSTYYNPSLKSRVTISVDTSKNQFSLKLSSVTAADTAVYYCLRGHRRDYIAFDIWGQGTMVTVSS VL: DIQMTQSPSSLSASVGDRVTITCRASQSISSYLNWYQQKPGKAPKLLIYAASSLQSGVPSRFSGSGSGTDFTLTISSLQPEDFATYYCQQSHNLPTFGGGTKVEIK |  | 0.439 | 2.39 | 5.7
4 | ADI-40360 (antibody, V domains shown) VH: QLQLQESGPGLVKPSETLSLTCTVSGGSISSSSYAWGWIRQPPGKRLEWIGSIYYTGSTYYNPSLKSRVTISVDTSKNQFSLKLSSVTAADTAVYYCVRGHRRDYIAFDIWGQGTMVTVSS VL: DIQMTQSPSSLSASVGDRVTITCRASQSISSYLNWYQQKPGKAPKLLIYAASSLQSGVPSRFSGSGSGTDFTLTISSLQPEDFATYYCQQSHNLPTFGGGTKVEIK |  | 1.78 | 1.14 | 2.8
5 | ADI-46663 (antibody, V domains shown) VH: EVQLVESGGGLVQPGGSLRLSCAASGFTFNAYAMNWVRQAPGKGLEWVARIRSKSNNYATYYADSVKDRFTISRDDSKNSLYLQMNSLKTEDTAVYYCVRQSYGNSNYAMDYWGQGTTVTVSS VL: DIVMTQSPLSLPVTPGEPASISCRSSKSLLHSNGNTYLYWYLQKPGQSPQLLIYRMSNLASGVPDRFSGSGSGTDFTLKISRVEAEDVGVYYCMQHLEYPFTFGGGTKVEIK |  | 1.26 | 1.79 | 
6 | ADI-40327 (antibody, V domains shown) VH: QVQLQESGPGLVKPSETLSLTCAVSGYSISSGYYWGWIRQPPGKGLEWIGSIYHSGNTYYRPSLKSRVTISVDTSKNQFSLKLSSVTAADTAVYYCARGKGGSWTAFGPWGQGTLVTVSS VL: DIQMTQSPSSLSASVGDRVTITCRASQSISSFLNWYQQKPGKAPKLLISAASSLQSGVPSRFSGSGSGTDFTLTISSLQPEDFATYYCQQGHSTPPTFGGGTKVEIK |  | 4.61 | 5.46 | 14.3

— patent US20250019449A1 (Memorial Sloan Kettering, published 2025)
